In this assay the target is Leukocyte Function Antigen-1 (LFA-1), on cells (Jurkat T cells, human T cells, PBMC) (human) (UniProt P20701). Description: cell-based or functional assay.

The source of these data is patent publication US20150241442A1.

Sequence of Leukocyte Function Antigen-1 (LFA-1), on cells (Jurkat T cells, human T cells, PBMC) (human) (P20701 26-1170, chain 1 of 2): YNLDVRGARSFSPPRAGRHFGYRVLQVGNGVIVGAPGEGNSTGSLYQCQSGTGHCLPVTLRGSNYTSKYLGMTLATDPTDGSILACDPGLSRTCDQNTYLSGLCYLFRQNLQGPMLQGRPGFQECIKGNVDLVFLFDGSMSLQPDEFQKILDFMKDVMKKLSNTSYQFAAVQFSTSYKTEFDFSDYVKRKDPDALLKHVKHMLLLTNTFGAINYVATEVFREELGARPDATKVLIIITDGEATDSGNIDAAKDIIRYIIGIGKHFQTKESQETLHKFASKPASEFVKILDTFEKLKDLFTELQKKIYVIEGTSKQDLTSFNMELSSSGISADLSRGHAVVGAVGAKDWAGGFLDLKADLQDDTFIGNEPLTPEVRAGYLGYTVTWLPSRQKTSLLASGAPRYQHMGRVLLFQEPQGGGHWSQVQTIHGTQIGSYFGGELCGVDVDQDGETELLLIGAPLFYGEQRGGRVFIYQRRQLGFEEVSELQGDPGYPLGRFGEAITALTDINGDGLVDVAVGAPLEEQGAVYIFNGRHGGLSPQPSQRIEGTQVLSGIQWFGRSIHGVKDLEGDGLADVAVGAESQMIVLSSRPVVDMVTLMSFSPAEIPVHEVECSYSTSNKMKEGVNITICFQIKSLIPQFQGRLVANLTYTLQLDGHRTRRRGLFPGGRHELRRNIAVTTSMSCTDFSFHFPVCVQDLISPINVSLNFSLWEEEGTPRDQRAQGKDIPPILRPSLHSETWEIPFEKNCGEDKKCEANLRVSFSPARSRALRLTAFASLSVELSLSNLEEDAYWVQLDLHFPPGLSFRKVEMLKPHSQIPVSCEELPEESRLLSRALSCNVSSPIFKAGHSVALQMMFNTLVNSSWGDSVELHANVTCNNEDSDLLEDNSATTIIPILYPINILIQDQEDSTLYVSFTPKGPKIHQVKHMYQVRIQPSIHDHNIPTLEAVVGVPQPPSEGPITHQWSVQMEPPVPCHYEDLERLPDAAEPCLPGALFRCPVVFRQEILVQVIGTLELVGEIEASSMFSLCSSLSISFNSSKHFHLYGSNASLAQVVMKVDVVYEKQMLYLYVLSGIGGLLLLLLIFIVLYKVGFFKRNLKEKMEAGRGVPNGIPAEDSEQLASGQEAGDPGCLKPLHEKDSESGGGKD
Sequence of Leukocyte Function Antigen-1 (LFA-1), on cells (Jurkat T cells, human T cells, PBMC) (human) (P05107 23-769, chain 2 of 2, further chain): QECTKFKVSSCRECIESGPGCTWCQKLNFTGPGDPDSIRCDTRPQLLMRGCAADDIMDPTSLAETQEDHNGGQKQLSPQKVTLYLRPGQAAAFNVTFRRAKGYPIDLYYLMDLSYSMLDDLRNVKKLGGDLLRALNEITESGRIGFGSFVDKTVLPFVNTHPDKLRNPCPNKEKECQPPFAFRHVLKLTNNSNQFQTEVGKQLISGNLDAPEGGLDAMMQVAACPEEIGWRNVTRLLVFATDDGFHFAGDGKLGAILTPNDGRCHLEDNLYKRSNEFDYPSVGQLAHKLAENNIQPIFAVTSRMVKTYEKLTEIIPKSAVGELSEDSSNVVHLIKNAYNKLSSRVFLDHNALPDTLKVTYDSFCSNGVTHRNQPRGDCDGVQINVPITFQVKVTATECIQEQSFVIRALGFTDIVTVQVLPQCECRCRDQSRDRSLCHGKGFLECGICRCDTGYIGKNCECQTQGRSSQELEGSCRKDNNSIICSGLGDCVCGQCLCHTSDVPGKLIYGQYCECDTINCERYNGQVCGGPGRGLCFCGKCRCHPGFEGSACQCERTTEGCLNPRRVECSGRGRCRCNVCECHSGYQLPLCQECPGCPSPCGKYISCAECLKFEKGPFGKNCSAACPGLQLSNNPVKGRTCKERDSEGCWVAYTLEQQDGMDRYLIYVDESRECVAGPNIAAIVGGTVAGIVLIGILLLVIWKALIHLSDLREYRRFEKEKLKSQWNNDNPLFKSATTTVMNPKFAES
Sequence of recombinant human ICAM-1-FC (P05362 28-480 limits assumed): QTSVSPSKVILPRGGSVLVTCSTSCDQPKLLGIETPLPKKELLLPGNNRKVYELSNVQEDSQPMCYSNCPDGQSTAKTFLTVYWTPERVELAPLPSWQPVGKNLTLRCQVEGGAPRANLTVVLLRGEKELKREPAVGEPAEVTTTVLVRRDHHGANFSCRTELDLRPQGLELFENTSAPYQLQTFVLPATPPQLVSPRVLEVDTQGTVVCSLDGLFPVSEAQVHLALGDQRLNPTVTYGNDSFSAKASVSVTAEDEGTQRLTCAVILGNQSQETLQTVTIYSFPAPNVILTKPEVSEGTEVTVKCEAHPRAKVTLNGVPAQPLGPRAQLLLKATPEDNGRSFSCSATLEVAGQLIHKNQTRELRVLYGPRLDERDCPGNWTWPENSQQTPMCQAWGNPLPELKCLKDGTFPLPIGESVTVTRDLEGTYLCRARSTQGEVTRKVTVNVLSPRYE

In turn, “recombinant human ICAM-1-FC (from UniProt P05362 28-480) (Fc fusion)” displayed a frequency of the perforin negative population, CD56+CD8med cells of 13.7% and a granzyme-A negative population, CD56+CD8high cells of 4.12%.
